Read-outs that look alike come from different tables or passages of the source.
Tests used:
Assay in all cases: cryo-EM structure
[1] = target: human glycine receptor β subunit, βem construct (human)
[2] = target: human glycine receptor β subunit, βem construct (human); remark: listed apart in the source
[3] = target: human glycine receptor β subunit, βem construct (human); remark: listed apart in the source

Row | Binder | stoichiometry N [1] | stoichiometry N [2] | stoichiometry N [3]
1 | human glycine receptor α3 subunit, α3em construct (receptor) ARSRSAPMSPSDFLDKLMGRTSGYDARIRPNFKGPPVNVTCNIFINSFGSIAETTMDYRVNIFLRQKWNDPRLAYSEYPDDSLDLDPSMLDSIWKPDLFFANEKGANFHEVTTDNKLLRIFKNGNVLYSIRLTLTLSCPMDLKNFPMDVQTCIMQLESFGYTMNDLIFEWQDEAPVQVAEGLTLPQFLLKEEKDLRYCTKHYNTGKFTCIEVRFHLERQMGYYLIQMYIPSLLIVILSWVSFWINMDAAPARVALGITTVLTMTTQSSGSRASLPKVSYVKAIDIWMAVCLLFVFSALLEYAAVNFVSRQHKELLRFRRKRKNKTEAFDMDDEVRESRFSFTAYGMGPCLQAKDGMTPKGPNHPVQVMPKSPDEMRKVFIDRAKKIDTISRACFPLAFLIFNIFYWVIYKILRHEDIHQQQD | 4 α3 per β | 4 α3 per β | –
2 | human glycine receptor α3 subunit, α3S346Eem construct (phosphorylation mimetic) (receptor) ARSRSAPMSPSDFLDKLMGRTSGYDARIRPNFKGPPVNVTCNIFINSFGSIAETTMDYRVNIFLRQKWNDPRLAYSEYPDDSLDLDPSMLDSIWKPDLFFANEKGANFHEVTTDNKLLRIFKNGNVLYSIRLTLTLSCPMDLKNFPMDVQTCIMQLESFGYTMNDLIFEWQDEAPVQVAEGLTLPQFLLKEEKDLRYCTKHYNTGKFTCIEVRFHLERQMGYYLIQMYIPSLLIVILSWVSFWINMDAAPARVALGITTVLTMTTQSSGSRASLPKVSYVKAIDIWMAVCLLFVFSALLEYAAVNFVSRQHKELLRFRRKRKNKTEAFDMDDEVREERFSFTAYGMGPCLQAKDGMTPKGPNHPVQVMPKSPDEMRKVFIDRAKKIDTISRACFPLAFLIFNIFYWVIYKILRHEDIHQQQD | – | 4 α3 per β | 4 α3 per β

Reference: PMC12141631
